In patent publication US20180369403A1 (University of Texas, published 2018):
Values joined by “and” are separate entries in the source; they are usually repeats but may differ in a detail not shown here. Equal values may be shown once.

Legend:
[1] = target: T1, human LGR4 (leucine-rich repeat-containing G-protein coupled receptor 4) (human, UniProt Q9BXB1 25-951); assay: fluorescence cell binding, HEK293 cells overexpressing LGR4, Alexa-488 anti-rat IgG
T1 construct: whole, on cells; also called GPR48; HEK293-LGR4-human

[2] = target: T1, human LGR4 (leucine-rich …); assay: cell-based or functional assay
[3] = target: T2, mouse LGR4 (mouse, UniProt A2ARI4 25-951); assay: Western blot, lane HEK293-LGR4-mouse
T2 construct: whole, on cells; also called native mouse receptor; HEK293-LGR4-mouse

[4] = target: T3, LGR5 (UniProt O75473 22-561, limits assumed); assay: specificity cross check analysis
T3 sequence (looked up): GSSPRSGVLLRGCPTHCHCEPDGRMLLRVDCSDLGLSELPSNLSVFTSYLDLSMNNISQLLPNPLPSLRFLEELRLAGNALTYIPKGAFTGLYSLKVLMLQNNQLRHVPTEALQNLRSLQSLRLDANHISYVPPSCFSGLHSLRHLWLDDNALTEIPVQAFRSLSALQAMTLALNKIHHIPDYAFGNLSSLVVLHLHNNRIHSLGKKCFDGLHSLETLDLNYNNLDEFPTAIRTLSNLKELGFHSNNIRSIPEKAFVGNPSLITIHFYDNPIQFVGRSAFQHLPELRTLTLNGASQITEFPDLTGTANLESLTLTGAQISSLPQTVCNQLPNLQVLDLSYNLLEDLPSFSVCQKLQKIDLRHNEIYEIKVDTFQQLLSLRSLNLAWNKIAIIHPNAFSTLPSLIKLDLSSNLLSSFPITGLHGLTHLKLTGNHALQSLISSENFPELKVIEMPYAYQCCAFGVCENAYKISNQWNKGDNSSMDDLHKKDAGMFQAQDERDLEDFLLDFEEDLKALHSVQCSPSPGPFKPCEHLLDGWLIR

[5] = target: T4, LGR6 (UniProt Q9HBX8 25-567, limits assumed); assay: specificity cross check analysis
T4 sequence (looked up): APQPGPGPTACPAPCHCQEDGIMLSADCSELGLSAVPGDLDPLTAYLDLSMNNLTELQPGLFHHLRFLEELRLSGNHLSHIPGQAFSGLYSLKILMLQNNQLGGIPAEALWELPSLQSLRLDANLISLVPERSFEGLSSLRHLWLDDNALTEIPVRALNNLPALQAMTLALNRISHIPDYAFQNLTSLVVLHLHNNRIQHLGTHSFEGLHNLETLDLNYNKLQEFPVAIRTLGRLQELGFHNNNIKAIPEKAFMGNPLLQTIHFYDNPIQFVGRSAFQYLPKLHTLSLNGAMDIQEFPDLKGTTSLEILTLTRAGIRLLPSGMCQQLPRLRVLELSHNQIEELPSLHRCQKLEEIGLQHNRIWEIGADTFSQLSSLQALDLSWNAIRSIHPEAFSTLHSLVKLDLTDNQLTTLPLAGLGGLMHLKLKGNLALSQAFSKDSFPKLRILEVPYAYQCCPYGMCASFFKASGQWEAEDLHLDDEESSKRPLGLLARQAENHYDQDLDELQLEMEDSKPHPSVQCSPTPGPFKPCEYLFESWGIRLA

[6] = target: T1, human LGR4 (leucine-rich …); assay: binding to live HEK293 cells stably expressing human LGR4

B1: anti-LGR4 monoclonal antibody 3G6 (antibody, V domains shown)
VH: QVQLQQSGAELVKPGSSVKISCKASGYTFTSNFMHWIKQQPGNGLEWIGWIYPGDGDTDYNQKFIGKATLTADKSSSTAYMQLSSLTSEDSAVYFCSRSNSGYNWFAYWGQGTLVTVSS
VL: DIVLTQSPPVLSASVGDRVTLSCKASQNINKNLDWYQQKHGEAPKLLIYYTNNLQTGIPSRFSGSGSGTDYTLTIRSLQPEDVATYYCYQYRTGWTFGGGTKLELKR
notes: Rat monoclonal antibody; also called clone 3G6
B1 was tested, and the Kd [1] was 0.1 µg/mL.

B2: 8D2-MC-VC-PAB-MMAE (antibody, V domains shown)
VH: QVQLQQSGAELVKPGASVNLSCKTSGYTFSTSYMSWFKQIPGQTIEWVGLIYVGAGGPTYNQKFKGKASLTVDTSSSTAYMDLSSLTAEDSAVYFCARVRGYAMDAWGQGTSVTVSS
VL: DIVLTQSPATLSVTPGESVSLSCRASQDISTSIHWYQQKSNESPRLLIKYASQSISGIPSRFSGGGSGTDFTLTINRVESEDFSVYYCQQSYSLPVTFGSGTKLELKR
modifications: MMAE (auristatin) attached through an MC-VC-PAB (maleimidocaproyl-valine-citrulline-p-aminobenzyloxycarbonyl) linker; sites and chain of attachment not stated
In the case of B2, the “IC50, cell viability of IGROV1 cells (CelltiterGlo, 4 days)” value [2] is reported as about 0.3 µg/mL, the “IC50, cell viability of OVCAR3 cells (CelltiterGlo, 4 days)” value [2] is reported as about 0.03 µg/mL and the “IC50, cell viability of SKOV3 cells (CelltiterGlo, 4 days)” value [2] is reported as 2.4 µg/mL.

B3: anti-LGR4 monoclonal antibody 8D2 (antibody, V domains shown)
VH: QVQLQQSGAELVKPGASVNLSCKTSGYTFSTSYMSWFKQIPGQTIEWVGLIYVGAGGPTYNQKFKGKASLTVDTSSSTAYMDLSSLTAEDSAVYFCARVRGYAMDAWGQGTSVTVSS
VL: DIVLTQSPATLSVTPGESVSLSCRASQDISTSIHWYQQKSNESPRLLIKYASQSISGIPSRFSGGGSGTDFTLTINRVESEDFSVYYCQQSYSLPVTFGSGTKLELKR
notes: also called mAb 8D2; LGR4-mAb-8D2
With B3 the Kd [1] was 0.5 µg/mL, the binding result [3] was “binds” and the binding result [4] was “no binding”. The binding result [5] was “no binding” and the Kd [6] was ~0.1 µg/mL and ~0.7 nM.
